Test results reported in PMC9563779 (Cancers, 2022).
Values belong to the binder of their own block, whether it stands above or below them.

Tests used:
[1] = target: T1, extracellular domain of p95HER2 peptide with a poly-histidine-tag in the C-terminus (Homo sapiens); test: SPR; Oslo-2 mAb (5 μg/mL) covalently immobilised by amine coupling on a CM5 chip, anti-HER2 (cytopla-HER2) mAb on the reference flow cell; p95HER2 ECD peptide as analyte, 0.6 to 2500 nM; HBS-EP+ buffer; 25 °C; Biacore T200; global fit to the 1:1 bimolecular interaction model; conditions: both partners purified
T1 construct: printed with HHHHHH at the C-terminus; also called p95HER2 ECD peptide; source: synthetic peptide (GenScript); not shown: His6, C-terminal, kept

[2] = target: T2, 20 mer epitope peptide GVKPDLSYMPIWKFPDEEGA (region 603-622 in HER2) (Homo sapiens); test: peptide or protein array; peptides immobilised on a cellulose membrane (PepSpots); Oslo-2 mAb 5 μg/mL in 5% nonfat skim milk, three hours at RT; HRP-conjugated secondary antibody, chemiluminescence; conditions: both partners purified
T2 construct: region 603-622 in HER2, spanning the N terminus of the p95HER2 extracellular domain; source: synthetic peptide, immobilised on a cellulose membrane (PepSpots, JPT Peptide Technologies)
T2 chain: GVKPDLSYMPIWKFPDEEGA

[3] = target: T3, N-terminally truncated 20 mer without proline-612 (613-622) (Homo sapiens); test: as above; conditions: both partners purified
T3 construct: source: synthetic peptide, immobilised on a cellulose membrane (PepSpots, JPT Peptide Technologies)
T3 chain: IWKFPDEEGA

[4] = target: T4, N-terminally truncated 20 mer without isoleucine-613 (614-622) (Homo sapiens); test: as above; conditions: both partners purified
T4 construct: source: synthetic peptide, immobilised on a cellulose membrane (PepSpots, JPT Peptide Technologies)
T4 chain: WKFPDEEGA

[5] = target: T5, peptide 1 of the overlapping 15mer peptides covering the p95HER2 extracellular domain (Homo sapiens, UniProt P04626); test: as above; conditions: both partners purified
T5 construct: first 15mer of the p95HER2 extracellular domain, containing MPIW; source: synthetic peptide, immobilised on a cellulose membrane (PepSpots, JPT Peptide Technologies)
T5 chain: MPIWKFPDEEGACQP

[6] = target: T6, N-terminally truncated 20 mer without methionine-611 (612-622) (Homo sapiens); test: as above; conditions: both partners purified
T6 construct: source: synthetic peptide, immobilised on a cellulose membrane (PepSpots, JPT Peptide Technologies)
T6 chain: PIWKFPDEEGA

[7] = target: T7, full-length HER2 (endogenous) (Homo sapiens, UniProt P04626); test: flow cytometry on cells; Oslo-2 mAb 10 μg/mL on cell lines, 30 min at 4 °C in FACS buffer (PBS pH 7, 2% FBS, 2 mM EDTA), labelled secondary antibody; conditions: one partner purified
T7 construct: human epidermal growth factor receptor 2 (HER2), full-length, on cells and in tissue sections; also called HER2 full-length; full-length HER2 receptor; source: endogenous, SK-BR-3 and A549 cells; endogenous, human breast carcinoma biopsy and normal human tissues

[8] = target: T8, 611-CTF-p95HER2 (611-carboxy terminal fragment of HER2) on p95HER2-T47D cells (Homo sapiens, UniProt P04626); test: as above; conditions: one partner purified
T8 construct: source: p95HER2-T47D cells (C2069, Crown Bioscience); cultured cells and orthotopic xenograft tumours in NSG mice

[9] = target: T9, full-length HER2 in transduced MDA-MB-468 cells (Homo sapiens, UniProt P04626); test: as above; conditions: one partner purified
T9 construct: full-length HER2 expressed from the plasmid pBABEpuro-ERBB2; source: cultured cells and subcutaneous xenograft tumours

[10] = target: T8, 611-CTF-p95HER2 (611-carboxy terminal …); test: flow cytometry on cells; monoclonal hybridoma supernatant (1:50 dilution) on cell lines, 30 min at 4 °C in FACS buffer, goat anti-rat-PE; conditions: partners not purified

Kd [1]: 2 nM | binding result [2]: binds | binding result [3]: binds | binding result [4]: binds | binding result [5]: binds | binding result [6]: binds | binding result [7]: no binding (tested: 10 μg/mL) | binding result [8]: binds | binding result [9]: no binding (tested: 10 μg/mL)
B1: Oslo-2 mAb (antibody, V domains shown)
VH: EVQILETGGGLVKPGGSLRLSCATSGFNFNDYFMNWVRQAPGKGLEWIAQIRNKNYNYATYFAESLEGRFTISRDDSKSSVYLQVNSLRAEDTALYYCTELRYDYWGQGVMVTVSS
VL: DIVMTQSPFSLAVSEGEMVTINCKSSQSLLSSGNQKNNLAWYQQKPGQSPKLLIYYASTRQSGVPDRFIGSGSGTDFTLTISDVQAEDLADYYCLQHYSSPYTFGAGTKLELK
notes: variable heavy domain; variable light domain; On the peptide membrane Oslo-2 was detected with a horse anti-mouse secondary antibody, so the constant regions may be mouse (surmise); also called Oslo-2 Ab; Oslo-2 (p95HER2) antibody

binding result [10]: binds
B2: mClone 1 (monoclonal hybridoma culture supernatant) (antibody, V domains shown)
VH: B1 VH
VL: B1 VL
notes: constant region of the rat hybridoma antibody; source: rat hybridoma (B-cells fused with Ag8 myeloma cells), sub-cloned by limited dilution, culture supernatant
